Results as given in PMC4954055, “A Self‐Assembled Respiratory Chain that Catalyzes NADH Oxidation by Ubiquinone‐10 Cycling between Complex I and the Alternative Oxidase” (Angewandte Chemie (International Ed. in English), 2015).

Substrate: COC1=C(OC)C(=O)C(C/C=C(\C)CC/C=C(\C)CC/C=C(\C)CC/C=C(\C)CC/C=C(\C)CC/C=C(\C)CC/C=C(\C)CC/C=C(\C)CC/C=C(\C)CCC=C(C)C)=C(C)C1=O
Test: NADH:O2 oxidoreduction in Q10 proteoliposomes, Michaelis-Menten fit
Type: biochemical, Bos taurus
Details: 200 μM NADH, 15 μg/mL alamethicin, 10 mM Tris-SO4 pH 7.5, 50 mM KCl, 32 °C, excess AOX reoxidizes Q10H2, membrane-phase concentration, stated as approximately 3.9 mM Q10 in the membrane phase

B1: complex I (NADH:ubiquinone oxidoreductase, CI) (Bos taurus) (protein)
chain 1: ARQWQPDVEWAEQYGGAVMYPTKETAHWKPPPWNDVDPPKDTLVSNLTLNFGPQHPAAHGVLRLVMELSGEMVRKCDPHIGLLHRGTEKLIEYKTYLQALPYFDRLDYVSMMCNEQAYSLAVEKLLNIQPPPRAQWIRVLFGEITRLLNHIMAVTTHALDIGAMTPFFWMFEEREKMFEFYERVSGARMHAAYVRPGGVHQDLPLGLMDDIYEFSKNFSLRIDELEEMLTNNRIWRNRTVDIGIVTAEDALNYGFSGVMLRGSGIQWDLRKTQPYDVYDQVEFDVPIGSRGDCYDRYLCRVEEMRQSIRIISQCLNKMPPGEIKVDDAKVSPPKRAEMKTSMESLIHHFKLYTEGYQVPPGATYTAIEAPKGEFGVYLVSDGSSRPYRCKIKAPGFAHLAGLDKMSKGHMLADVVAIIGTQDIVFGEVDR
chain 2: not shown
chain 3: not shown
notes: native complex purified from heart mitochondria, detergent-solubilized, reconstituted into proteoliposomes with Q10 and AOX; with NADH dehydrogenase [ubiquinone] flavoprotein 1, mitochondrial; NADH dehydrogenase [ubiquinone] flavoprotein 2, mitochondrial; NADH-ubiquinone oxidoreductase 75 kDa subunit, mitochondrial; NADH dehydrogenase [ubiquinone] iron-sulfur protein 3, mitochondrial; NADH …
With B1 the kcat was 500 s⁻¹.
